From paper PMC12846365 (2026)

Key:
[1] = target: 48d IC as analyte in SPR (non-crosslinked control) (HIV-1 strain BG505, UniProt Q2N0S6); assay: SPR
[2] = target: 48d.cl IC as analyte in SPR (Fab-Fab-crosslinked [change]) (HIV-1 strain BG505, UniProt Q2N0S6); assay: SPR

B1: 2mutVRC01 (antibody, V domains shown)
VH: QVQLVQSGGQMKKPGESMRISCRASGYEFIDCTLNWIRLAPGKRPEWMGWLKPRGGAVNYARPLQGRVTMTRDVYSDTAFLELRSLTVDDTAVYFCTRGKNCDYNWDFEHWGRGTPVIVSS
VL: EIVLTQSPGTLSLSPGETAIISCRTSQYGSAALAWYQQRPGQAPRLVIYSGSTRAAGIPDRFSGSRWGPDYNLTISNLESGDFGVYYCQQYEFFGQGTKVQVD
In the case of B1, the Kd [1] is reported as 0.81 nM, the koff [1] is reported as 0.00031 s⁻¹ and the Kd [2] is reported as 0.52 nM. The koff [2] was 0.00012 s⁻¹.
